Entries after “also recorded” stand apart in the source; their conditions may differ.
Tested on: mevalonate biosynthetic pathway
Assay: Mevalonate production with synthetic scaffolds in E. coli
Format: cell-based, Escherichia coli
Protocol: The scalability of the co-recruitment strategy was tested by building separate scaffold devices capable of co-localizing multiple enzymes. Scaffolds provide a means for physically separating the binding elements for design control from the catalytic activities. Thus, the only modification to the enzyme necessary for gaining modular control over complex formation is the addition of a single interaction ligand to each enzyme. A peptide ligand specific for a corresponding protein-protein interaction domain was recombined to the C-terminus of each enzyme of the mevalonate biosynthetic pathway (FIG. 3a). Scaffolds were built by tethering together, via flexible nine amino acid glycine-serine linkers, different numbers of three protein-protein interaction domains from metazoan genomes: the GTPase Binding Domain (GBD) from the actin polymerization switch N-WASP, the SH3 domain, and the PSD95/DlgA/Zo-1 (PDZ) domain from the adaptor protein syntrophin (see Table 1, below).
By varying the number of repeats of these interaction domains, the ratio of individual pathway enzymes co-localized to the resultant complex could be controlled. Scaffolds were built with a single GBD domain for recruiting AtoB and varying numbers of SH3 and PDZ domains for recruiting HMGS and HMGR, respectively. A matrix of scaffolds was made with the architecture (N-terminal to C-terminal) of GBDxSH3yPDZz where x=1 and y and z were varied to be 1, 2, or 4. For separate inducible control, the pathway enzymes were placed under transcriptional control of the tetracycline-inducible promoter (Ptet), and the scaffolds were under transcriptional control of the arabinose-inducible promoter (PBAD). In an effort to lower the metabolic load imposed on the production host, mevalonate production experiments were conducted with low expression levels of the mevalonate pathway enzymes (7 nM aTc) and a high scaffold expression level (250 μM arabinose) to improve pathway efficiency.

B1: G1S2P2: optimized scaffold polypeptide with 1, 2, and 2 repeats of GBD, SH3, and PDZ domains (SEQ ID NO:37) (protein)
chain: MTKADIGTPSNFQHIGHVGWDPNTGFDLNNLDPELKNLFDMCGISEAQLKDRETSKVIYDFIEKTGGVEAVKNELRRQAPGSGSGSGGSMAEYVRALFDFNGNDEEDLPFKKGDILRIRDKPEEQWWNAEDSEGKRGMIPVPYVEKYGSGSGSGGSMAEYVRALFDFNGNDEEDLPFKKGDILRIRDKPEEQWWNAEDSEGKRGMIPVPYVEKYGSGSGSGGSMLQRRRVTVRKADAGGLGISIKGGRENKMPILISKIFKGLAADQTEALFVGDAILSVNGEDLSSATHDEAVQALKKTGKEVVLEVKYMKEVSPYFKGSGSGSGGSMLQRRRVTVRKADAGGLGISIKGGRENKMPILISKIFKGLAADQTEALFVGDAILSVNGEDLSSATHDEAVQALKKTGKEVVLEVKYMKEVSPYFKGS
- change in mevalonate production with increasing concentrations of glycerol (glycerol as carbon source, increases saturated at approximately 4% glycerol): improved dramatically; also recorded: significant increases
- fold increase in mevalonate production compared to the unscaffolded pathway (G0S0P0) (low pathway enzyme expression (7 nM aTc), high scaffold expression (250 μM arabinose), 4% glycerol): 77 fold
- fold more mevalonate than G0S0P0-GFP (pathway under pTET, scaffold under pBAD, control expresses GFP instead of scaffold): 77 fold

— patent publication US9856460B2, “Nucleic acids encoding synthetic scaffolds and host cells genetically modified with the nucleic acids” (The Regents of the University of California, priority 2008, dated 2018)
